Read-outs that look alike come from different tables or passages of the source.
Experiments:
[1] = biological target: T1, soluble human IL-6 receptor (human, UniProt P08887 20-357); test: SPR (Biacore T100), antibody captured on a Protein A/G chip (CM5), human IL-6 receptor as analyte, 1.2 mM CaCl2, pH 7.4, 37 °C
T1 construct: also called hsIL-6R
T1 sequence: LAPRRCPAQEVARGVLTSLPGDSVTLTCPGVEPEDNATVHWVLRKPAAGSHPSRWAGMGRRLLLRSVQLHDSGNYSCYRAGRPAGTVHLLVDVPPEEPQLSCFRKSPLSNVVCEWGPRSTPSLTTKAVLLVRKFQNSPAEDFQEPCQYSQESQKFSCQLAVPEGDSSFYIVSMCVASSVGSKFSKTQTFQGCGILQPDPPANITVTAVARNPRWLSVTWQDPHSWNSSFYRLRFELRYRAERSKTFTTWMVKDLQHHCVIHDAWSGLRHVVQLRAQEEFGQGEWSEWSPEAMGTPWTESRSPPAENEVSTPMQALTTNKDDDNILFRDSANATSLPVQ
Protocol: The interaction was analyzed in solutions at 1.2 mM and 3 μM calcium ion concentration, corresponding to high and low calcium ion concentration conditions, respectively. An appropriate amount of Protein A/G (Invitrogen) was immobilized onto a Sensor chip CM5 (GE Healthcare) by an amino coupling method, and antibodies of interest were captured onto the chip. The two types of running buffers used were: 20 mM ACES/150 mM NaCl/0.05% (w/v) Tween20/1.2 mM CaCl₂ (pH 7.4); and 20 mM ACES/150 mM NaCl/0.05% (w/v) Tween20/3 μM CaCl₂ (pH 7.4). These buffers were each used to dilute human IL-6 receptor. All measurements were carried out at 37° C.
Then, 10 mM glycine-HCl (pH 1.5) was injected at a flow rate of 30 μl/min for 30 seconds to regenerate the sensor chip.

[2] = biological target: T2, human FcγRIIb extracellular domain with C-terminal His tag (human, UniProt P31994 43-217); test: SPR (Biacore)
T2 construct: extracellular domain; also called FcgRIIb
T2 sequence (looked up): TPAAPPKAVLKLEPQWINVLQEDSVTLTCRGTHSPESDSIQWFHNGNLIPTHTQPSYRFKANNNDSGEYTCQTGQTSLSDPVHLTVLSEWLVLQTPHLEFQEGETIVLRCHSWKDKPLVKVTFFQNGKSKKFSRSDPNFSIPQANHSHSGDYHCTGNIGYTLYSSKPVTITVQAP

[3] = biological target: T3, human FcγRIIa type R extracellular domain with C-terminal His tag (human, UniProt P12318 34-217); test: SPR (Biacore), parent IL6R-B3/IL6R-L
T3 construct: extracellular domain; also called FcγRIIaR; FcγRIIa(R)
T3 sequence (looked up): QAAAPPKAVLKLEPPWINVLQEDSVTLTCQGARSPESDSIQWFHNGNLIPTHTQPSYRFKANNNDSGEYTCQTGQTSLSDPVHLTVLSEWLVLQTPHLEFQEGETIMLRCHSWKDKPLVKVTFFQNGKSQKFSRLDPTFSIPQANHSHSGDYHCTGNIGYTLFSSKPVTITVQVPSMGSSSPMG

[4] = biological target: T4, human FcγRIIb extracellular domain with C-terminal His tag (human, UniProt P31994 43-217); test: SPR (Biacore), parent IL6R-B3/IL6R-L
T4 construct: extracellular domain
T4 sequence (looked up): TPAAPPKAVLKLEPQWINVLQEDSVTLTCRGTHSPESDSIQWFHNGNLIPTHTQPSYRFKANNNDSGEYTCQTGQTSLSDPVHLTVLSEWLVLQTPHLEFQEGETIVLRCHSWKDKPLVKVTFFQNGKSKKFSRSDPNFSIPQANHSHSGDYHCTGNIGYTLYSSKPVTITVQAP

[5] = biological target: T4, human FcγRIIb extracellular domain with …; test: SPR (Biacore), ratio of KDs
[6] = biological target: T3, human FcγRIIa type R extracellular …; test: SPR (Biacore)
[7] = biological target: T5, human FcγRIa extracellular domain with C-terminal His tag (human, UniProt P12314 16-292); test: SPR (Biacore)
T5 construct: extracellular domain
T5 sequence (P12314 16-292): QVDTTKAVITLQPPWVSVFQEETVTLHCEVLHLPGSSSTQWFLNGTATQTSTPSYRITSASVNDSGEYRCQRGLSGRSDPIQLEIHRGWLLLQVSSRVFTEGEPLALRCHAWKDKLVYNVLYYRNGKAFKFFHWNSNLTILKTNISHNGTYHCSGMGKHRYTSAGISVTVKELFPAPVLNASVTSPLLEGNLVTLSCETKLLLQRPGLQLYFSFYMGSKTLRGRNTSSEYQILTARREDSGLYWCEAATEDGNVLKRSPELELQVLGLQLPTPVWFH

[8] = biological target: T4, human FcγRIIb extracellular domain with …; test: SPR (Biacore)
[9] = biological target: T3, human FcγRIIa type R extracellular …; test: SPR (Biacore); worded summary of Table 28
[10] = biological target: T4, human FcγRIIb extracellular domain with …; test: SPR (Biacore); worded summary of Table 28
[11] = biological target: T6, human FcγRIIIa type V extracellular domain with C-terminal His tag (human, UniProt P08637 17-208); test: SPR (Biacore)
T6 construct: extracellular domain; also called FcγRIIIaV; FcgRIIIaV
T6 sequence (P08637 17-208 F176V): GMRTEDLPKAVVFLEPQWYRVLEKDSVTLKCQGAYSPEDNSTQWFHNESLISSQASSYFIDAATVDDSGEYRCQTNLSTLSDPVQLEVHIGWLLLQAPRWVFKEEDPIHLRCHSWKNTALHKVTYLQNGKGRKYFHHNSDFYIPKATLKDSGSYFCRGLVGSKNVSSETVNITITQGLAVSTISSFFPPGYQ

[12] = biological target: T7, human FcγRIa extracellular domain with C-terminal His tag (human, UniProt P12314 16-292); test: SPR (Biacore)
T7 construct: extracellular domain; also called FcgRIa
T7 sequence (P12314 16-292): as the sequence (P12314 16-292) above

[13] = biological target: T8, human FcγRIIa type H extracellular domain with C-terminal His tag (human, UniProt P12318 34-217); test: SPR (Biacore)
T8 construct: extracellular domain; also called FcγRIIaH; FcgRIIaH
T8 sequence (looked up): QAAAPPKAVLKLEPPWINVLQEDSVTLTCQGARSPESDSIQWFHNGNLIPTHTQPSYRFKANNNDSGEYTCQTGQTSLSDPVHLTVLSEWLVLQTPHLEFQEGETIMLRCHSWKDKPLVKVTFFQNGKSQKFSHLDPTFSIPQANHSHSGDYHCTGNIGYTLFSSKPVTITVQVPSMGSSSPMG

B1: tocilizumab (antibody, human IgG1, kappa)
heavy: not shown
light: not shown
notes: also called anti-IL-6R antibody (tocilizumab)
**Q.** Does B1 bind [1]?
**A.** Result: binds

B2: 6RC1IgG_012 (antibody, V domains shown)
VH: QVQLVQSGAEVKKPGASVKVSCKASGYTFTSYGISWVRQAPGQGLEWMGWISAYNGNTNYAQKLQGRVTMTTDTSTSTAYMELRSLRSDDTAVYYCARATYYYDSSAPAFDIWGQGTMVTVSS
VL: DIQMTQSPSSLSASVGDRVTITCRASQSIEDDLAWYQQKPGKAPKLLIYEASTLQSGVPSRFSGSGSGTDFTLTISSLQPEDFATYYCQQHDDSPLTFGQGTKVEIKR
**Q.** Does B2 bind [1]?
**A.** Result: binds

B3: 6RC1IgG_010 (antibody, V domains shown)
VH: QVQLVQSGAEVKKPGSSVKVSCKASGGTFSSYAISWVRQAPGQGLEWMGGIIPIFGTANYAQKFQGRVTITADESTSTAYMELSSLRSEDTAVYYCARAAFLEWPIWGSEYFQHWGQGTLVTVSS
VL: DIQMTQSPSSLSASVGDRVTITCRASQSIEDDLAWYQQKPGKAPKLLIYHASSLQSGVPSRFSGSGSGTDFTLTISSLQPEDFATYYCQQRDSYPLTFGQGTKVEIKR
**Q.** Does B3 bind [1]?
**A.** Result: binds

B4: 6RC1IgG_019 (antibody, V domains shown)
VH: EVQLVQSGAEVKKPGSSVKVSCKASGGTFSSYAISWVRQAPGQGLEWMGGIIPIFGTANYAQKFQGRVTITADESTSTAYMELSSLRSEDTAVYYCARDRGSGFNWGNYAFDIWGQGFSVTVSS
VL: DIQMTQSPSSLSASVGDRVTITCRASQSIEDDLAWYQQKPGKAPKLLIYEASNLQSGVPSRFSGSGSGTDFTLTISSLQPEDFATYYCQQYDRYPYTFGQGTKVEIKR
**Q.** Does B4 bind [1]?
**A.** Result: binds

B5: IL6R-BP130/IL6R-L (antibody, human IgG1, kappa)
heavy: QVQLQESGPGLVKPSETLSLTCAVSGHSISHDHAWSWVRQPPGEGLEWIGFISYSGITNYNPSLQGRVTISRDNSKNTLYLQMNSLRAEDTAVYYCARSLARTTAMDYWGEGTLVTVSSASTKGPSVFPLAPSSKSTSGGTAALGCLVKDYFPEPVTVSWNSGALTSGVHTFPAVLQSSGLYSLSSVVTVPSSSLGTQTYICNVNHKPSNTKVDKKVEPKSCDKTHTCPPCPAPDLLGGDSVFLFPPKPKDTLMISRTPEVTCVVVDVSHEDPEVKFNWYVDGVEVHNAKTKPREEQYNSTYRVVSVLTVLHQDWLNGKEYKCKMSNKALPKPIEKTISKAKGQPREPQVYTLPPSRDELTKNQVSLTCLVKGFYPSDIAVEWESNGQPENNYKTTPPVLDSDGSFFLYSKLTVDKSRWQQGNVFSCSVMHEALHNHYTQESLSLSP
light: not shown
notes: EU numbering; alterations on IL6R-B3; copies: 2 + 2
**Q.** How did the Kd [2] turn out when B5 was run?
**A.** Its Kd is 300 nM.

B6: IL6R-BP559/IL6R-L (antibody, human IgG1, kappa)
heavy: QVQLQESGPGLVKPSETLSLTCAVSGHSISHDHAWSWVRQPPGEGLEWIGFISYSGITNYNPSLQGRVTISRDNSKNTLYLQMNSLRAEDTAVYYCARSLARTTAMDYWGEGTLVTVSSASTKGPSVFPLAPSSKSTSGGTAALGCLVKDYFPEPVTVSWNSGALTSGVHTFPAVLQSSGLYSLSSVVTVPSSSLGTQTYICNVNHKPSNTKVDKKVEPKSCDKTHTCPPCPAPELLGGDSVFLFPPKPKDTLMISRTPEVTCVVIDVAEEDGDVKFNWYVDGVEVHNAKTKPREEQDNSTYRVVSVLTVLHQDWLNGKEYKCKVSNKALPAPIEKTISKAKGQPREPQVYTLPPSRDELTKNQVSLTCLVKGFYPSDIAVEWESNGQPENNYKTTPPVLDSDGSFFLYSKLTVDKSRWQQGNVFSCSVMHEALHNHYTQESLSLSP
light: not shown
notes: copies: 2 + 2
**Q.** Which results are given for B6?
**A.** KD(IIaR) parent/KD(IIaR) altered polypeptide [3]: 0.7; KD(IIb) parent/KD(IIb) altered polypeptide [4]: 110; KD(IIaH)/KD(IIb) [5]: 712; KD(IIaR)/KD(IIb) [5]: 58.4; Kd [6]: 1600 nM; Kd [7]: 1.1 nM; Kd [8]: 28 nM; FcγRIIaR binding as compared to IL6R-B3/IL6R-L [9]: ≤ 1.5 times; FcγRIIb-binding activity as compared to IL6R-B3/IL6R-L [10]: ≥ 100 times

B7: IL6R-BP180/IL6R-L (antibody, human IgG1, kappa)
heavy: QVQLQESGPGLVKPSETLSLTCAVSGHSISHDHAWSWVRQPPGEGLEWIGFISYSGITNYNPSLQGRVTISRDNSKNTLYLQMNSLRAEDTAVYYCARSLARTTAMDYWGEGTLVTVSSASTKGPSVFPLAPSSKSTSGGTAALGCLVKDYFPEPVTVSWNSGALTSGVHTFPAVLQSSGLYSLSSVVTVPSSSLGTQTYICNVNHKPSNTKVDKKVEPKSCDKTHTCPPCPAPELLGDDSVFLFPPKPKDTLMISRTPEVTCVVVDVSHEDGEVKFNWYVDGVEVHNAKTKPREEQYNSTYRVVSVLTVLHQDWLNGKEYKCKVSNKALPKPIEKTISKAKGQPREPQVYTLPPSRDELTKNQVSLTCLVKGFYPSDIAVEWESNGQPENNYKTTPPVLDSDGSFFLYSKLTVDKSRWQQGNVFSCSVMHEALHNHYTQESLSLSP
light: not shown
notes: EU numbering; alterations on IL6R-B3; also called IL6R-BF180/IL6R-L; copies: 2 + 2
**Q.** Which Kd [11] does the source give for B7 here?
**A.** Its Kd is 70 µM.

**Q.** And the Kd [12]?
**A.** The Kd was 98 nM.

B8: IL6R-BP151/IL6R-L (antibody, human IgG1, kappa)
heavy: QVQLQESGPGLVKPSETLSLTCAVSGHSISHDHAWSWVRQPPGEGLEWIGFISYSGITNYNPSLQGRVTISRDNSKNTLYLQMNSLRAEDTAVYYCARSLARTTAMDYWGEGTLVTVSSASTKGPSVFPLAPSSKSTSGGTAALGCLVKDYFPEPVTVSWNSGALTSGVHTFPAVLQSSGLYSLSSVVTVPSSSLGTQTYICNVNHKPSNTKVDKKVEPKSCDKTHTCPPCPAPDYLGDDSVFLFPPKPKDTLMISRTPEVTCVVVDVSHEDPEVKFNWYVDGVEVHNAKTKPREEQYNSTYRVVSVLTVLHQDWLNGKEYKCKVSNAALPRPIEKTISKAKGQPREPQVYTLPPSRDELTKNQVSLTCLVKGFYPSDIAVEWESNGQPENNYKTTPPVLDSDGSFFLYSKLTVDKSRWQQGNVFSCSVMHEALHNHYTQESLSLSP
light: not shown
notes: as for B5
**Q.** B8 was tested. Which Kd [2] did it give?
**A.** Its Kd is 40 nM.

B9: IL6R-BP148/IL6R-L (antibody, human IgG1, kappa)
heavy: QVQLQESGPGLVKPSETLSLTCAVSGHSISHDHAWSWVRQPPGEGLEWIGFISYSGITNYNPSLQGRVTISRDNSKNTLYLQMNSLRAEDTAVYYCARSLARTTAMDYWGEGTLVTVSSASTKGPSVFPLAPSSKSTSGGTAALGCLVKDYFPEPVTVSWNSGALTSGVHTFPAVLQSSGLYSLSSVVTVPSSSLGTQTYICNVNHKPSNTKVDKKVEPKSCDKTHTCPPCPAPDYLGDDSVFLFPPKPKDTLMISRTPEVTCVVVDVSHEDPEVKFNWYVDGVEVHNAKTKPREEQYNSTYRVVSVLTVLHQDWLNGKEYKCKVSNAALPKPIEKTISKAKGQPREPQVYTLPPSRDELTKNQVSLTCLVKGFYPSDIAVEWESNGQPENNYKTTPPVLDSDGSFFLYSKLTVDKSRWQQGNVFSCSVMHEALHNHYTQESLSLSP
light: not shown
notes: as for B5
**Q.** How did the Kd [11] turn out when B9 was run?
**A.** The Kd was 30 µM.

**Q.** What about the Kd [13] of the same binder?
**A.** The Kd was 7 µM.

B10: IL6R-BP182/IL6R-L (antibody, human IgG1, kappa)
heavy: QVQLQESGPGLVKPSETLSLTCAVSGHSISHDHAWSWVRQPPGEGLEWIGFISYSGITNYNPSLQGRVTISRDNSKNTLYLQMNSLRAEDTAVYYCARSLARTTAMDYWGEGTLVTVSSASTKGPSVFPLAPSSKSTSGGTAALGCLVKDYFPEPVTVSWNSGALTSGVHTFPAVLQSSGLYSLSSVVTVPSSSLGTQTYICNVNHKPSNTKVDKKVEPKSCDKTHTCPPCPAPDLLGGDSVFLFPPKPKDTLMISRTPEVTCVVVDVSHEDGEVKFNWYVDGVEVHNAKTKPREEQDNSTYRVVSVLTVLHQDWLNGKEYKCKVSNKALPKPIEKTISKAKGQPREPQVYTLPPSRDELTKNQVSLTCLVKGFYPSDIAVEWESNGQPENNYKTTPPVLDSDGSFFLYSKLTVDKSRWQQGNVFSCSVMHEALHNHYTQESLSLSP
light: not shown
notes: as for B5
**Q.** B10 was tested. Which Kd [12] did it give?
**A.** Its Kd is 10 nM.

Source: patent US20220389118A1 (Chugai, published 2022)
